Test results as given in patent US20050158748.

How the values were obtained:
[1] = target: ribosomal protein S6 (in purified 40S ribosomal subunits from liver)
[2] = target: synthetic peptide representing C-terminus of S6 protein

B1: EE-tag/p70β^S6k (p70β-II isoform, N-terminal EE-tag) (protein)
chain: MAAVFDLDLETEEGSEGEGEPELSPADACPLAELRAAGLEPVGHYEEVELTETSVNVGPERIGPHCFELLRVLGKGGYGKVFQVRKVQGTNLGKIYAMKVLRKAKIVRNAKDTAHTRAERNILESVKHPFIVELAYAFQTGGKLYLILECLSGGELFTHLEREGIFLEDTACFYLAEITLALGHLHSQGIIYRDLKPENIMLSSQGHIKLTDFGLCKESIHEGAVTHTFCGTIEYMAPEILVRSGHNRAVDWWSLGALMYDMLTGSPPFTAENRKKTMDKIIRGKLALPPYLTPDARDLVKKFLKRNPSQRIGGGPGDAADVQRHPFFRHMNWDDLLAWRVDPPFRPCLQSEEDVSQFDTRFTRQTPVDSPDDTALSESANQAFLGFTYVAPSVLDSIKEGFSFQPKLRSPRRLNSSPRVPVSPLKFSPFEGFRPSPSLPEPTELPLPPLLPPPPPSTTAPLPIRPPSGTKKSKRGRGRPGR
- in vitro kinase reaction: phosphorylation of S6 protein in 40S subunits [1]: p70β^S6k (p70β-II isoform) phosphorylates the S6 protein in vitro nearly as efficiently as p70α^S6k
- in vitro kinase reaction: phosphorylation of the synthetic peptide [2]: p70β^S6k (p70β-II isoform) also phosphorylates this peptide but with slightly lower efficiency than observed with p70α^S6k
